The target of assay [1] is T1, human PD-L2 antigen (Homo sapiens, UniProt Q9BQ51).
T1 sequence (Q9BQ51 20-273): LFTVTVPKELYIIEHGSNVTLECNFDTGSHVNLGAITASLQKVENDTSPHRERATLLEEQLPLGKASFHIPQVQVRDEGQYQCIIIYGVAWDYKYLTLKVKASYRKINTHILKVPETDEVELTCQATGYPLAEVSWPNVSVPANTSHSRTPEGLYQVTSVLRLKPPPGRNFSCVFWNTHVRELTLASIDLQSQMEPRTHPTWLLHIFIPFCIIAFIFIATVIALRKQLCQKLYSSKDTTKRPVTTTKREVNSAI
The experiment in a line: Single cycle kinetics on Biacore 8K, binding to human PD-L2 antigen. To be noted: Table 2, cell culture supernatants. The text has this: Table 2: Single cycle kinetic parameters of chimeric (VH0/VK0) and humanized variants (tested as cell culture supernatants) binding to human PD-L2 antigen as determined using the Biacore 8K. As used herein, the term “KD” is intended to refer to the dissociation equilibrium constant of a particular antibody-antigen interaction, ka is the binding rate constant and kd is the dissociation rate constant. The binding affinity of antibodies of the disclosed invention may be measured or determined by standard antibody-antigen assays. The relative KD was calculated by dividing the KD of the humanized variant by that of the VH0/VK0 assayed in the same experiment.
On the technique in general: Surface plasmon resonance follows binding to a sensor surface in real time, without labels.

The target of assay [2] is T1, human PD-L2 antigen. The assay is described as above. Conditions: Table 3; preferred embodiments by Biacore.

Numbering of substitutions follows the chain as printed.

B1: VH1/VK1: humanized anti-PD-L2 variant; SEQ ID NO: 2/SEQ ID NO: 10 (antibody, V domains shown)
VH: QVQLVQSGAELKKPGSSVKVSCKASGYAFSNYFIEWVKQPPGKGLEWIGLNIPGSGGSNYAEKFKGRATITADKSTSTAYMELSSLTSEDSAVYFCARRRLPPDWYFDVWGQGTTVTVSS
VL: DVVMTQSPLSLPVTLGQPASISCRSSQSLVHSDGNTYLHWYQQKPGQPPKLLIYKVSNRFSGVPDRFSGSGSGTDFTLKISRVEAEDVGVYFCSQSTHVPWTFGGGTKVEIK
Turning to B1, in the assay with human PD-L2 antigen [1], the “kd” value amounted to 0.00011 s⁻¹.

B2: VH0/VK1: anti-PD-L2 variant on hIgG1; SEQ ID NO: 1/SEQ ID NO: 10 (antibody, V domains shown)
VH: QVQLQQSGAELVRPGTSVKVSCKASGYAFSNYFIEWVKQRPGQGLEWIGLNIPGSGGSNYAEKFKGKATLTADKSSSTAYMQLSSLTSEDSAVYFCARRRLPPDWYFDVWGTGTTVTVSS
VL: B1 VL
modifications: human IgG1 constant regions
B2: the “kd” value in the assay with human PD-L2 antigen [1] turned out to be 9.88e-05 s⁻¹.

B3: VH0/VK0: chimeric anti-PD-L2 antibody, mouse Fab on human IgG1 backbone; SEQ ID NO: 1/SEQ ID NO: 9 (antibody, V domains shown)
VH: B2 VH
VL: B1 VL with S7T, T14S, Q17D, P18Q, Q42L, P48S, V88L, V109L
modifications: human IgG1 constant regions
In the case of B3, the “kd” value with human PD-L2 antigen [2] and with human PD-L2 antigen [1] was 9.72e-05 s⁻¹ in each case.

B4: VH1/VK3: humanized anti-PD-L2 variant; SEQ ID NO: 2/SEQ ID NO: 12 (antibody, V domains shown)
VH: B1 VH
VL: B1 VL with D33G
With B4, the “kd” value with human PD-L2 antigen [1] is 0.000365 s⁻¹.

B5: VH4/VK2: humanized anti-PD-L2 variant; SEQ ID NO: 5/SEQ ID NO: 11 (antibody, V domains shown)
VH: B1 VH with L11V, A68V, T87R, S91T, F95Y
VL: B1 VL with F92Y
With B5, the “kd” value with human PD-L2 antigen [2] and with human PD-L2 antigen [1] was 0.000129 s⁻¹ in each case.

B6: VH2/VK1: humanized anti-PD-L2 variant; SEQ ID NO: 3/SEQ ID NO: 10 (antibody, V domains shown)
VH: B1 VH with L11V, T87R
VL: B1 VL
Regarding B6, the “kd” value with human PD-L2 antigen [1] stood at 0.000119 s⁻¹.

B7: VH6/VK2: humanized anti-PD-L2 variant; SEQ ID NO: 6/SEQ ID NO: 11 (antibody, V domains shown)
VH: B1 VH with L11V, A28S, A68V, T87R, S91T, F95Y
VL: B1 VL with F92Y
With B7, the “kd” value with human PD-L2 antigen [2] and with human PD-L2 antigen [1] was 0.000128 s⁻¹ throughout.

B8: VH4/VK1: humanized anti-PD-L2 variant; SEQ ID NO: 5/SEQ ID NO: 10 (antibody, V domains shown)
VH: B1 VH with L11V, A68V, T87R, S91T, F95Y
VL: B1 VL
Take B8: the “kd” value in the assay with human PD-L2 antigen [1] was 0.000125 s⁻¹.

B9: VH2/VK2: humanized anti-PD-L2 variant; SEQ ID NO: 3/SEQ ID NO: 11 (antibody, V domains shown)
VH: B1 VH with L11V, T87R
VL: B1 VL with F92Y
Regarding B9, the “kd” value with human PD-L2 antigen [1] came to 0.000122 s⁻¹.

B10: VH4/VK3: humanized anti-PD-L2 variant; SEQ ID NO: 5/SEQ ID NO: 12 (antibody, V domains shown)
VH: B1 VH with L11V, A68V, T87R, S91T, F95Y
VL: B1 VL with D33G
In the case of B10, in the assay with human PD-L2 antigen [1], the “kd” value amounted to 0.000466 s⁻¹.

B11: VH8/VK2: humanized anti-PD-L2 variant; SEQ ID NO: 8/SEQ ID NO: 11 (antibody, V domains shown)
VH: B1 VH with L11V, T87R, S91T, F95Y
VL: B1 VL with F92Y
As to B11, the “kd” value with human PD-L2 antigen [2] and with human PD-L2 antigen [1] was 0.000121 s⁻¹ in each case.

B12: VH6/VK1: humanized anti-PD-L2 variant; SEQ ID NO: 6/SEQ ID NO: 10 (antibody, V domains shown)
VH: B1 VH with L11V, A28S, A68V, T87R, S91T, F95Y
VL: B1 VL
B12: the “kd” value with human PD-L2 antigen [2] and with human PD-L2 antigen [1] was 0.000121 s⁻¹ in each case.

B13: VH7/VK1: humanized anti-PD-L2 variant; SEQ ID NO: 7/SEQ ID NO: 10 (antibody, V domains shown)
VH: B1 VH with T87R, S91T, F95Y
VL: B1 VL
In the case of B13, the “kd” value with human PD-L2 antigen [1] turned out to be 0.000113 s⁻¹.

B14: VH8/VK1: humanized anti-PD-L2 variant; SEQ ID NO: 8/SEQ ID NO: 10 (antibody, V domains shown)
VH: B1 VH with L11V, T87R, S91T, F95Y
VL: B1 VL
As to B14, the “kd” value in the assay with human PD-L2 antigen [1] stood at 0.00012 s⁻¹.

B15: VH6/VK3: humanized anti-PD-L2 variant; SEQ ID NO: 6/SEQ ID NO: 12 (antibody, V domains shown)
VH: B1 VH with L11V, A28S, A68V, T87R, S91T, F95Y
VL: B1 VL with D33G
B15: the “kd” value in the assay with human PD-L2 antigen [2] and with human PD-L2 antigen [1] was 0.000444 s⁻¹ each time.

B16: VH8/VK3: humanized anti-PD-L2 variant; SEQ ID NO: 8/SEQ ID NO: 12 (antibody, V domains shown)
VH: B1 VH with L11V, T87R, S91T, F95Y
VL: B1 VL with D33G
As for B16, the “kd” value with human PD-L2 antigen [1] is 0.000388 s⁻¹.

B17: VH1/VK0: anti-PD-L2 variant on hIgG1; SEQ ID NO: 2/SEQ ID NO: 9 (antibody, V domains shown)
VH: B1 VH
VL: B1 VL with S7T, T14S, Q17D, P18Q, Q42L, P48S, V88L, V109L
modifications: human IgG1 constant regions
Consider B17, for which, in the assay with human PD-L2 antigen [1], the “kd” value worked out at 0.000109 s⁻¹.

B18: VH3/VK1: humanized anti-PD-L2 variant; SEQ ID NO: 4/SEQ ID NO: 10 (antibody, V domains shown)
VH: B1 VH with L11V, A68V, T87R
VL: B1 VL
Regarding B18, the “kd” value with human PD-L2 antigen [1] was determined as 0.000128 s⁻¹.

B19: VH7/VK3: humanized anti-PD-L2 variant; SEQ ID NO: 7/SEQ ID NO: 12 (antibody, V domains shown)
VH: B1 VH with T87R, S91T, F95Y
VL: B1 VL with D33G
As to B19, the “kd” value with human PD-L2 antigen [1] is 0.000344 s⁻¹.

B20: VH2/VK3: humanized anti-PD-L2 variant; SEQ ID NO: 3/SEQ ID NO: 12 (antibody, V domains shown)
VH: B1 VH with L11V, T87R
VL: B1 VL with D33G
Take B20: the “kd” value with human PD-L2 antigen [1] was 0.000414 s⁻¹.

B21: VH1/VK2: humanized anti-PD-L2 variant; SEQ ID NO: 2/SEQ ID NO: 11 (antibody, V domains shown)
VH: B1 VH
VL: B1 VL with F92Y
Regarding B21, in the assay with human PD-L2 antigen [1], the “kd” value turned out to be 0.000116 s⁻¹.

B22: VH3/VK2: humanized anti-PD-L2 variant; SEQ ID NO: 4/SEQ ID NO: 11 (antibody, V domains shown)
VH: B1 VH with L11V, A68V, T87R
VL: B1 VL with F92Y
Consider B22, for which the “kd” value in the assay with human PD-L2 antigen [1] came to 0.000132 s⁻¹.

B23: VH3/VK3: humanized anti-PD-L2 variant; SEQ ID NO: 4/SEQ ID NO: 12 (antibody, V domains shown)
VH: B1 VH with L11V, A68V, T87R
VL: B1 VL with D33G
As to B23, the “kd” value in the assay with human PD-L2 antigen [1] was found to be 0.000497 s⁻¹.

B24: VH7/VK2: humanized anti-PD-L2 variant; SEQ ID NO: 7/SEQ ID NO: 11 (antibody, V domains shown)
VH: B1 VH with T87R, S91T, F95Y
VL: B1 VL with F92Y
Turning to B24, the “kd” value with human PD-L2 antigen [2] and with human PD-L2 antigen [1] was 0.000118 s⁻¹ throughout.

Source of the values: patent US20250179187A1, “ANTI PD-L2 ANTIBODY” (REJUVERON SENESCENCE THERAPEUTICS AG, priority 2022, published 2025).
